In US20220296690A1 (Pieris, published 2022):

Biological target: T1, Recombinant human CTLA-4 (human, UniProt P16410 36-161, limits assumed)
T1 sequence (looked up): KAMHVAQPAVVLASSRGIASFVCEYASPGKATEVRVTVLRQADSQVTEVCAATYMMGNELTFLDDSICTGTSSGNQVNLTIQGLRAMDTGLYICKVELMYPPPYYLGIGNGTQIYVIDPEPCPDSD
Assay: ELISA; recombinant human CTLA-4 coated at 5 µg/mL, T cell culture supernatant added, detected with rabbit anti-NGAL polyclonal antibody and goat anti-rabbit IgG-HRP
Protocol: FIG. 2: Detection of functional T-cell secreted CTLA-4 antagonist by ELISA. The supernatant of human peripheral blood T cells, mock-transduced or transduced with pSIN-(NFAT)6-αCTLA-4 and cultured under activatory conditions (cf. Example 1 and FIG. 1) was analyzed for the presence of functionally active CTLA-4 antagonist SEQ ID NO: 28 by ELISA. Recombinant human CTLA-4 was coated on an ELISA plate as described in Example 1, and culture supernatants of transduced and mock-transduced T cells were added. Plate-bound SEQ ID NO: 28 was detected by primary staining with an anti-NGAL polyclonal antibody from the rabbit, secondary staining using goat anti rabbit IgG-HRP and addition of a chromogenic HRP substrate as described in Example 1.
Supernatants were analyzed for the presence of functionally active Anticalin-based CTLA-4 antagonist by ELISA as described in the following: Recombinant human CTLA-4 at a concentration of 5 μg/mL in PBS was added to each well of a 384 well ELISA plate and incubated over night at 4° C. […] Subsequently, rabbit anti-NGAL polyclonal antibody at a concentration of 1 μg/mL in PBS/0.1% (w/v) Tween20/2% (w/v) BSA was added, and bound antibody was detected using goat anti-rabbit IgG-HRP in a dilution of 1:5,000 in PBS/0.1% (w/v) Tween20/2% (w/v) BSA. […] Fluorescence signals in RFU (relative fluorescence units) were measured using a plate fluorescence reader.

- binding result: binds
B1: Anticalin-based CTLA-4 antagonist with Strep-tag II, mature processed secreted form (SEQ ID NO: 28) (designed binder)
chain: QDSTSDLIPAPPLSKVPLQQNFQDNQFQGKWYVVGLAGNRILRQDQHPMLMYATIYELKEDKSYQVTSVISSHKKCLYPIATFVPGSQPGEFTLGNIKSYGDKVSYLVRVVSTNYNQHAMVFFKHADTNYESFSITLYGRTKELTSELKENFIRFSKSLGLPENHIVFPVPIDQCIDGSAWSHPQFEK
notes: also called anti-CTLA-4 Anticalin; αCTLA-4
